Test results from patent US20200031888.

Molecular target: C3b (Comptech), P01024
Sequence (P01024 whole entry, looked up): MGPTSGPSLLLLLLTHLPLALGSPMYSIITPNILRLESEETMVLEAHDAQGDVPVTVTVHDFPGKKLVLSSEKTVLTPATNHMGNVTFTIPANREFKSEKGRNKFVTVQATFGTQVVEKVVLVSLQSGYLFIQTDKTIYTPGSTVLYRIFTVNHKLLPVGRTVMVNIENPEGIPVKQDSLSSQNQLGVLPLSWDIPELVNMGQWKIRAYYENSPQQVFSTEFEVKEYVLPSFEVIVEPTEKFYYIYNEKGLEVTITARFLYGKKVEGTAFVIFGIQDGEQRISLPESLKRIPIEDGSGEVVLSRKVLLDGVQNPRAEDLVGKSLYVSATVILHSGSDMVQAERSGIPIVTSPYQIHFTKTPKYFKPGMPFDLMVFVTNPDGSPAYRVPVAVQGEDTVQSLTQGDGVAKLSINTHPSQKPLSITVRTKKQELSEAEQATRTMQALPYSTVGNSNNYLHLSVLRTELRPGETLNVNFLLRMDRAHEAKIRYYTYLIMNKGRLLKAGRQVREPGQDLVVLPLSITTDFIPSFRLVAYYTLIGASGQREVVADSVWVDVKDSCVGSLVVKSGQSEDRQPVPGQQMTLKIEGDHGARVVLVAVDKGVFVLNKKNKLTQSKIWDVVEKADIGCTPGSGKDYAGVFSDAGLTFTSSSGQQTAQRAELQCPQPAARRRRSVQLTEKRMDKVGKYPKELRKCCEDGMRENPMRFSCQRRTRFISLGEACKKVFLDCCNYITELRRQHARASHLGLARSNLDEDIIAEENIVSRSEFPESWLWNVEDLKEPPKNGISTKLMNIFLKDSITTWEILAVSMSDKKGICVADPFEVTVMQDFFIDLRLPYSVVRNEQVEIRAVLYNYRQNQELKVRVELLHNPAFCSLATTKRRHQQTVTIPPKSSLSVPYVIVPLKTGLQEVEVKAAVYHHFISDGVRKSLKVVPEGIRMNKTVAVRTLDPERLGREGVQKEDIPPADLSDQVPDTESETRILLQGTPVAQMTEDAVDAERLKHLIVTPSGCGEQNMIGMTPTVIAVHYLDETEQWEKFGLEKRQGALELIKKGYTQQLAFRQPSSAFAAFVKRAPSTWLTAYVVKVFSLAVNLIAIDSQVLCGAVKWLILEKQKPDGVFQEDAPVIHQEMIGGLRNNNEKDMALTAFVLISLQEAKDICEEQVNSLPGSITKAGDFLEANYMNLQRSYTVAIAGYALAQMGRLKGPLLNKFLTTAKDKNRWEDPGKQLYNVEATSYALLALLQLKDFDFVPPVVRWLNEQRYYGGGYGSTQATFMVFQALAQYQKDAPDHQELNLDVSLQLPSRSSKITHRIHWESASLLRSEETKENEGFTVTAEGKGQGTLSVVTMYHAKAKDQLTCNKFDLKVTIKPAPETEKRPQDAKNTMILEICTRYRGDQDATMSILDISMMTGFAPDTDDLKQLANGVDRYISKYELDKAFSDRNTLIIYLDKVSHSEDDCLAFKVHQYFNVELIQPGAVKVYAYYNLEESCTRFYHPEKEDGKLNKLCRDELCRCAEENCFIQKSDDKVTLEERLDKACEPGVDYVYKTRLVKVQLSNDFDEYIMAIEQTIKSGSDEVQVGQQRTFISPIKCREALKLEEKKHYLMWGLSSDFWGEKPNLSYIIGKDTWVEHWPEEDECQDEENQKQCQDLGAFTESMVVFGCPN

B1: recombinant precursor Complement Factor I (pro-rCFI), His-tagged, expressed in CHO cells (protein)
chain: KVTYTSQEDLVEKKCLAKKYTHLSCDKVFCQPWQRCIEGTCVCKLPYQCPKNGTAVCATNRRSFPTYCQQKSLECLHPGTKFLNNGTCTAEGKFSVSLKHGNTDSEGIVEVKLVDQDKTMFICKSSWSMREANVACLDLGFQQGADTQRRFKLSDLSINSTECLHVHCRGLETSLAECTFTKRRTMGYQDFADVVCYTQKADSPMDDFFQCVNGKYISQMKACDGINDCGDQSDELCCKACQGKGFHCKSGVCIPSQYQCNGEVDCITGEDEVGCAGFASVTQEETEILTADMDAERRRIKSLLPKLSCGVKNRMHIRRKRIVGGKRAQLGDLPWQVAIKDASGITCGGIYIGGCWILTAAHCLRASKTHRYQIWTTVVDWIHPDLKRIVIEYVDRIIFHENYNAGTYQNDIALIEMKKDGNKKDCELPRSIPACVPWSPYLFQPNDTCIVSGWGREKDNERVFSLQWGEVKLISNCSKFYGNRFYEKEMECAGTYDGSIDACKGDSGGPLVCMDANNVTYVWGVVSWGENCGKPEFPGVYTKVANYFDWISYHVGRPFISQYNV
For B1, the “C3b cofactor assay, western blot” value was “only cleaved FI has activity, and Pro-FI is inactive”.

B2: serum CFI (Comptech) (protein)
chain: B1 chain
For B2, the “C3b inactivation assay, positive control” value was “iC3b cleaved by incubation with mature sCFI”.

B3: recombinant mature Complement Factor I made by in vitro furin cleavage of pro-rCFI (protein)
chain 1: KVTYTSQEDLVEKKCLAKKYTHLSCDKVFCQPWQRCIEGTCVCKLPYQCPKNGTAVCATNRRSFPTYCQQKSLECLHPGTKFLNNGTCTAEGKFSVSLKHGNTDSEGIVEVKLVDQDKTMFICKSSWSMREANVACLDLGFQQGADTQRRFKLSDLSINSTECLHVHCRGLETSLAECTFTKRRTMGYQDFADVVCYTQKADSPMDDFFQCVNGKYISQMKACDGINDCGDQSDELCCKACQGKGFHCKSGVCIPSQYQCNGEVDCITGEDEVGCAGFASVAQEETEILTADMDAERRRIKSLLPKLSCGVKNRMHI
chain 2: IVGGKRAQLGDLPWQVAIKDASGITCGGIYIGGCWILTAAHCLRASKTHRYQIWTTVVDWIHPDLKRIVIEYVDRIIFHENYNAGTYQNDIALIEMKKDGNKKDCELPRSIPACVPWSPYLFQPNDTCIVSGWGREKDNERVFSLQWGEVKLISNCSKFYGNRFYEKEMECAGTYDGSIDACKGDSGGPLVCMDANNVTYVWGVVSWGENCGKPEFPGVYTKVANYFDWISYHVGRPFISQYNV
With B3 the “C3b inactivation (cofactor) assay with CFH, western blot of alpha1 and alpha2 bands” value was “lane 8 which corresponds to a sample containing the in vitro cleaved mature rCFI, is the only sample containing bands that correspond to the α1 and α2 chains” and the “C3b inactivation assay, second western blot” value was “The activity of the in vitro cleaved rCFI can be seen to be comparable to sCFI”.
